The values below come from article PMC5125937 (Molecules and Cells, 2016).

Sequences and labels used below:
B1: EcZapD WT (residues 1-247) (natural protein)
chain: MQTQVLFEHPLNEKMRTWLRIEFLIQQLTVNLPIVDHAGALHFFRNVSELLDVFERGEVRTELLKELDRQQRKLQTWIGVPGVDQSRIEALIQQLKAAGSVLISAPRIGQFLREDRLIALVRQRLSIPGGCCSFDLPTLHIWLHLPQAQRDSQVETWIASLNPLTQALTMVLDLIRQSAPFRKQTSLNGFYQDNGGDADLLRLNLSLDSQLYPQISGHKSRFAIRFMPLDTENGQVPERLDFELACC

Data set [1] concerns the molecule itself. Nature of the data set: SEC-MALS.
In data set [2] the target is B1. As to the kind of experiment: BLI.
Data set [3] addresses T1, EcZapD H140R (residues 1-247) (E. coli, UniProt P36680 1-247, H140R).
T1 sequence: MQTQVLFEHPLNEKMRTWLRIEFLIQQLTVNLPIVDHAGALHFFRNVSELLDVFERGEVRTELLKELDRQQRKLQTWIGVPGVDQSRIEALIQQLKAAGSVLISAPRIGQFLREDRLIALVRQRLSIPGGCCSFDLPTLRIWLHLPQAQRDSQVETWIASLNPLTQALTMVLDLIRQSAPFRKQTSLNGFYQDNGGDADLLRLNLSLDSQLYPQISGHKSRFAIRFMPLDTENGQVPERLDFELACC
As to the kind of experiment: BLI.

The target of data set [4] is T2, EcZapD E22R (residues 1-247) (E. coli, UniProt P36680 1-247, E22R).
T2 sequence: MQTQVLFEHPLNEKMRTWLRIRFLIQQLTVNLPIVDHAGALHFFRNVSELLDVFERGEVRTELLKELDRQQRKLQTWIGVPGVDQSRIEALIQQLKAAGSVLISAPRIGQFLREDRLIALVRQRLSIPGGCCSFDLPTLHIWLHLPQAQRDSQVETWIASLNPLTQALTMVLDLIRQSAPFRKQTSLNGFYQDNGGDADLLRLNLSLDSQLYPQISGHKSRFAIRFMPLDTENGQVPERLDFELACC
As to the kind of experiment: BLI.

As for B1, the “stoichiometry N” value in data set [1] amounted to 2. In data set [2], KEPDYLDIPAFLRDQAD [GST-FtsZ_(367-383) K380D] displayed a Kd of 4.7 ± 0.5 µM. With KEPDYLDIPAFLRKQAD [GST-FtsZ_(367-383)], the Kd worked out at 16 ± 1 µM in data set [3], 4.4 ± 0.5 µM in data set [2] and 68 ± 2.2 µM in data set [4]. In data set [2], KEPDYLDIPAFLR [GST-FtsZ_(367-379)] came in with a Kd greater than 2000 µM.
